The values that follow are results of earlier work, collected in article PMC4212800.

This data set deals with CD4 D1-D2 (Homo sapiens) (UniProt P01730).

As to Ibalizumab, the Kd (in general, the concentration at which binding is half-saturated) is 0.0825 nM.
